How the values were obtained:
Assay in all cases: cell-based or functional assay
[1] = target: HIV-1 strain Q23.17 envelope (gp120) (HIV-1)
[2] = target: HIV-1 Env of strain 620345.c01 (HIV-1)
[3] = target: HIV-1 Env of strain 6545.v4.cl (HIV-1)
[4] = target: HIV-1 strain Ce0393_C3 envelope (gp120) (HIV-1)
[5] = target: HIV-1 strain Ce703010054_2A2 envelope (gp120) (HIV-1)
[6] = target: HIV-1 Env of strain WITO4160.33 (HIV-1)
[7] = target: HIV-1 strain ZM135M.PL10a envelope (gp120) (HIV-1)
[8] = target: HIV-1 strain CAAN5342.A2 envelope (gp120) (HIV-1)
[9] = target: HIV-1 strain 3103.v3.c10 envelope (gp120) (HIV-1)
[10] = target: HIV-1 Env of strain TRO.11 (HIV-1)
[11] = target: HIV-1 strain 6540.v4.c1 envelope (gp120) (HIV-1)
[12] = target: HIV-1 Env of strain 3718.v3.c11 (HIV-1)
[13] = target: HIV-1 Env of strain QH0692.42 (HIV-1)
[14] = target: HIV-1 strain Q769.d22 envelope (gp120) (HIV-1)
[15] = target: HIV-1 strain T257-31 envelope (gp120) (HIV-1)
[16] = target: HIV-1 strain TRJO4551.58 envelope (gp120) (HIV-1)
[17] = target: HIV-1 strain ZM214M.PL15 envelope (gp120) (HIV-1)
[18] = target: HIV-1 Env of strain WEAU_d15_410_787 (HIV-1)
[19] = target: HIV-1 Env of strain T278-50 (HIV-1)
[20] = target: HIV-1 strain ZM109F.PB4 envelope (gp120) (HIV-1)
[21] = target: HIV-1 Env of strain Q23.17 (HIV-1)
[22] = target: HIV-1 strain Q842.d12 envelope (gp120) (HIV-1)
[23] = target: HIV-1 strain 3016.v5.c45 envelope (gp120) (HIV-1)
[24] = target: HIV-1 strain HIV-16845-2.22 envelope (gp120) (HIV-1)
[25] = target: HIV-1 Env of strain Ce0393_C3 (HIV-1)
[26] = target: HIV-1 Env of strain 3415.v1.c1 (HIV-1)
[27] = target: HIV-1 Env of strain CAAN5342.A2 (HIV-1)
[28] = target: HIV-1 Env of strain ZM53M.PB12 (HIV-1)
[29] = target: HIV-1 Env of strain PVO.4 (HIV-1)
[30] = target: HIV-1 strain 6535.3 envelope (gp120) (HIV-1)
[31] = target: HIV-1 Env of strain T257-31 (HIV-1)
[32] = target: HIV-1 Env of strain Du172.17 (HIV-1)
[33] = target: HIV-1 strain QH0692.42 envelope (gp120) (HIV-1)
[34] = target: HIV-1 strain 1006_11_C3_1601 envelope (gp120) (HIV-1)
[35] = target: HIV-1 strain P0402_c2_11 envelope (gp120) (HIV-1)
[36] = target: HIV-1 strain Ce0682_E4 envelope (gp120) (HIV-1)
[37] = target: HIV-1 strain R1166.c01 envelope (gp120) (HIV-1)
[38] = target: HIV-1 strain 6480.v4.c25 envelope (gp120) (HIV-1)
[39] = target: HIV-1 strain ZM53M.PB12 envelope (gp120) (HIV-1)
[40] = target: HIV-1 strain 703357.C02 envelope (gp120) (HIV-1)
[41] = target: HIV-1 strain ZM197M.PB7 envelope (gp120) (HIV-1)
[42] = target: HIV-1 Env of strain 62357_14_D3_4589 (HIV-1)
[43] = target: HIV-1 Env of strain Q769.d22 (HIV-1)
[44] = target: HIV-1 strain C3347.c11 envelope (gp120) (HIV-1)
[45] = target: HIV-1 strain WITO4160.33 envelope (gp120) (HIV-1)
[46] = target: HIV-1 Env of strain Q842.d12 (HIV-1)
[47] = target: HIV-1 Env of strain ZM197M.PB7 (HIV-1)
[48] = target: HIV-1 strain 3718.v3.c11 envelope (gp120) (HIV-1)
[49] = target: HIV-1 Env of strain CNE30 (HIV-1)
[50] = target: HIV-1 Env of strain ZM135M.PL10a (HIV-1)

B1: NIH45-46^G54F IgG (antibody, name in Kabat numbering, V domains shown)
VH: QVRLSQSGGQMKKPGESMRLSCRASGYEFLNCPINWIRLAPGRRPEWMGWLKPRFGAVNYARKFQGRVTMTRDVYSDTAFLELRSLTSDDTAVYFCTRGKYCTARDYYNWDFEHWGRGAPVTVSS
VL: EIVLTQSPATLSLSPGETAIISCRTSQSGSLAWYQQRPGQAPRLVIYSGSTRAAGIPDRFSGSRWGADYNLSISNLESGDFGVYYCQQYEFFGQGTKVQVDI
**Q.** What does the source list for B1?
**A.** neutralization IC80 [1]: 0.07 µg/mL; neutralization IC50 [2]: > 50 µg/mL; neutralization IC50 [3]: > 50 µg/mL; neutralization IC80 [4]: 0.173 µg/mL; neutralization IC80 [5]: 0.07 µg/mL; neutralization IC50 [6]: 0.02 µg/mL; neutralization IC80 [7]: 0.43 µg/mL; neutralization IC80 [8]: 0.28 µg/mL; neutralization IC80 [9]: 1.28 µg/mL; neutralization IC50 [10]: 0.11 µg/mL; neutralization IC80 [11]: > 50 µg/mL; neutralization IC50 [12]: 0.32 µg/mL; neutralization IC50 [13]: 0.56 µg/mL; neutralization IC80 [14]: 0.023 µg/mL; neutralization IC80 [15]: 0.51 µg/mL; neutralization IC80 [16]: 0.08 µg/mL; neutralization IC80 [17]: 0.3 µg/mL; neutralization IC50 [18]: < 0.001 µg/mL; neutralization IC50 [19]: > 50 µg/mL; neutralization IC80 [20]: 0.17 µg/mL; neutralization IC50 [21]: 0.03 µg/mL; neutralization IC80 [22]: 0.039 µg/mL; neutralization IC80 [23]: 37 µg/mL; neutralization IC80 [24]: 2.75 µg/mL; neutralization IC50 [25]: 0.04 µg/mL; neutralization IC50 [26]: < 0.001 µg/mL; neutralization IC50 [27]: 0.1 µg/mL; neutralization IC50 [28]: 0.08 µg/mL; neutralization IC50 [29]: 0.07 µg/mL; neutralization IC80 [30]: 0.27 µg/mL; neutralization IC50 [31]: 0.17 µg/mL; neutralization IC50 [32]: > 50 µg/mL; neutralization IC80 [33]: 1.65 µg/mL; neutralization IC80 [34]: 0.024 µg/mL; neutralization IC80 [35]: 0.047 µg/mL; neutralization IC80 [36]: 0.056 µg/mL; neutralization IC80 [37]: 1.32 µg/mL; neutralization IC80 [38]: 0.046 µg/mL; neutralization IC80 [39]: 0.23 µg/mL; neutralization IC80 [40]: > 50 µg/mL; neutralization IC80 [41]: 0.23 µg/mL; neutralization IC50 [42]: 0.04 µg/mL; neutralization IC50 [43]: 0.005 µg/mL; neutralization IC80 [44]: 0.059 µg/mL; neutralization IC80 [45]: 0.14 µg/mL; neutralization IC50 [46]: 0.011 µg/mL; neutralization IC50 [47]: 0.09 µg/mL; neutralization IC80 [48]: 4.62 µg/mL; neutralization IC50 [49]: 0.1 µg/mL; neutralization IC50 [50]: 0.13 µg/mL
